Results from patent publication US20240043551A1 (ADLAI NORTYE BIOPHARMA, published 2024).
Numbering of substitutions follows the chain as printed.

T1: His tagged human TNFR2 ECD (Acro Biosystem, TN2-H5227) (human, UniProt P20333 23-257)
T1 construct: extracellular domain; Bought protein; also called TNFR2-His; hTNFR2-His; not shown: His tag
T1 sequence (looked up): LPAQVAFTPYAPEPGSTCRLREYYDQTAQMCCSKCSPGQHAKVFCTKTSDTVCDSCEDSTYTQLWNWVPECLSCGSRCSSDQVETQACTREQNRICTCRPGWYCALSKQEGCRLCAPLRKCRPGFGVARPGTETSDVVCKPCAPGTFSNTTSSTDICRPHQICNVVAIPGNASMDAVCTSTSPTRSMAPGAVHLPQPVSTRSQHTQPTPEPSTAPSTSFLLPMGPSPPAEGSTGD

T2: Full length human TNFR2 on Jurkat E6-1 cells (Clone NO.3) (human, UniProt P20333 23-461)
T2 construct: whole, on cells; also called human TNFR2+ Jurkat cells; hTNFR2 Jurkat
T2 sequence (looked up): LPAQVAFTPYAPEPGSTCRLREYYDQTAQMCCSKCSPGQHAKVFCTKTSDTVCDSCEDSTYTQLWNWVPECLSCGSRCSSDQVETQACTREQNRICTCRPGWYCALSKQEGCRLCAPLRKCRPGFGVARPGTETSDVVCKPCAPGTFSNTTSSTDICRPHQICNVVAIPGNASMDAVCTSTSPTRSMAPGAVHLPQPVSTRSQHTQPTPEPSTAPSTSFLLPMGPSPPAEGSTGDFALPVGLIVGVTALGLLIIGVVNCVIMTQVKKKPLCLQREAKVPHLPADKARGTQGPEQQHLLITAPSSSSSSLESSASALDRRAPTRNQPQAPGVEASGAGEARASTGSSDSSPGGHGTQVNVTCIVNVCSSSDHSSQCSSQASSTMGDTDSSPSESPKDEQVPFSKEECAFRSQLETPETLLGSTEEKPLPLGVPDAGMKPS

T3: mouse TNFR2 (R&D systems, 426-R2-050/CF) (mouse, UniProt P25119 23-258)
T3 construct: Bought protein
T3 sequence (looked up): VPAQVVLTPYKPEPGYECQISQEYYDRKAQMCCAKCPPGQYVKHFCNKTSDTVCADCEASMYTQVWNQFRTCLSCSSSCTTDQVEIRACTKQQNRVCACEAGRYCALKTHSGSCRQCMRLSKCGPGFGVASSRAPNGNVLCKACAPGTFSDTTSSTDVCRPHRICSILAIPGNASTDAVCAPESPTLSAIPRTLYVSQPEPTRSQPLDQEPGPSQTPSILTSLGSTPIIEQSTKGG

T4: Human TNFR1 (Acro Biosystem, TN1-H5222) (human, UniProt P19438 30-211)
T4 construct: Bought protein; also called TNF receptor type 1; CD120a
T4 sequence (looked up): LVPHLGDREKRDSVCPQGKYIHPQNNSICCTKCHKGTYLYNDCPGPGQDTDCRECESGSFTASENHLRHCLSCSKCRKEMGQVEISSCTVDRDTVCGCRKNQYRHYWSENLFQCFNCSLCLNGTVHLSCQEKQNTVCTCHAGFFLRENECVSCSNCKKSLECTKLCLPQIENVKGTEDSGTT

T5: rat TNFR2 (R&D systems, 8348-R2-050) (rat, UniProt Q80WY6 23-258)
T5 construct: Bought protein
T5 sequence (looked up): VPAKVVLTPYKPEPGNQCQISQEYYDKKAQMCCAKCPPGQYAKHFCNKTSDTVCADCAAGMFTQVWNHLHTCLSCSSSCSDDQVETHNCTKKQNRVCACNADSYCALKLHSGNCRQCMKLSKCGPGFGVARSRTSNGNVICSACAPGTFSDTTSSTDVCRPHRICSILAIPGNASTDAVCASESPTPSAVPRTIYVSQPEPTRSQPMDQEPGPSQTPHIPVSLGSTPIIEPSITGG

B1: TN1-36 scFv on phage (scFv, V domains shown)
VH: QQSVKESEGGLFKPTDTLTLTCTVSGFSLSSSAVSWVRQAPGNGLEWIGAIGSGGTSYYSNWAKSRSTITRDTNLNTVTLKMTSLTAADTATYFCARDPNSSDYPYGAYGMGLWGPGTLVTVSS
VL: ELDLTQTPASVEVAAGGTVTINCQVSQSISSYLSWYQQKPGQPPKLLIYYASTLASGVPSRFSGSGSGTEFTLTISGVQCDDAATYYCQQGYITSNVGNAFGGGTEVVVK
notes: also called TN1-36_VH/TN1-36_VL
B2: TN36-2 (antibody, human IgG1, V domains shown)
VH: EVQLVESGGGLIQPGGSLRLSCAASGFSLSSSAVSWVRQAPGKGLEWIGAIGSGGTSYYSNWAKSRFTISRDNSKNTLYLQMNSLRAEDTAVYYCARDPNSSDYPYGAYGMGLWGRGTLVTVSS
VL: DIQMTQSPSSLSASVGDRVTITCQVSQSISSYLSWYQQKPGKAPKLLIYYASTLASGVPSRFSGSGSGTDFTLTISSLQPEDFATYYCQQGYITSNVGNAFGGGTKVEIK
notes: Humanized; also called AL2/AL8
B3: TN36-8 (antibody, human IgG1, V domains shown)
VH: B2 VH with Y94F
VL: B2 VL with S10F
notes: Humanized; also called AL3/AL10
B4: TN36-9 (antibody, human IgG1, V domains shown)
VH: B2 VH with Y94F
VL: B2 VL with M4L, S10F, D70E
notes: Humanized; also called AL3/AL11
B5: TN36-7 (antibody, human IgG1, V domains shown)
VH: B2 VH with Y94F
VL: B2 VL with A43P
notes: Humanized; also called AL3/AL9

Biological target: T1, His tagged human TNFR2 ECD (Acro …)
Assay: monoclonal phage ELISA, hTNFR2-His coated, anti-M13-HRP
Experimental: A 96-well ELISA plate was coated with hTNFR2-His and blocked with PBS buffer containing 2% BSA at […], of pre-blocked phage solution was added to the plate and incubated at 37° C. for 30 min. After the plate was washed twice with PBS buffer containing 0.05% Tween 20, phage binding was detected by HRP-conjugated anti-M13 antibody (GE Healthcare). Top binders were picked and the corresponding phagemids in TG1 cell were isolated and subjected to DNA sequencing to obtain VH/VL sequence. The sequences of TN1-36_VH and TN1-36_VL are set forth as SEQ ID NO: 1 and SEQ ID NO: 2, respectively. Antibody numbering and CDR annotation are performed according to IMGT scheme respectively.

Row | Binder | binding result
1 | B1 | binds

Biological target: T2, Full length human TNFR2 on Jurkat E6-1 …
Assay: FACS on human TNFR2+ Jurkat Clone No.3, biotinylated antibody with streptavidin-PE
Experimental: FACS analysis was used to evaluate the binding of purified anti-TNFR2 antibody candidates produced from example 6 to cell surface TNFR2 target. Anti-human TNFR2 antibodies and negative control IgG were biotinylated using a EZ-Link™ Micro Sulfo-NHS-Biotinylation Kit (Thermo Fisher Scientific, 21925) according to manufacturer's instructions. Biotinylated antibodies (100 μg/mL) were then incubated with Halt™ Protease Inhibitor Cocktail (100X, Thermo Scientific, 1862209) and 80 μg/mL Streptavidin-R-Phycoerythrin (PE) conjugate (Invitrogen, S21388). Antibodies were stored at 4° C. until use. 5×10⁵ Clone No.3 of human TNFR2⁺ Jurkat cells were distributed each well and blocked with human TruStain FcX™ (Biolegend, 422302) for 10 minutes at room temperature before stained with a serially diluted PE conjugated anti-human TNFR2 antibodies or hIgG1 starting from 50 μg/mL in a 5-fold dilution fashion for 30 minutes at 4° C. PE-anti hTNFR2 (Clone MR2-1, Thermo fisher #TNFR7504) was used as positive control. The geometric mean fluorescent intensity was measured on Sony SA3800 cell analyzer. Data were analyzed using Flowjo Software (Tree star Inc).

Row | Binder | binding result
2 | B2 | binds
3 | B3 | binds
4 | B4 | binds
5 | B5 | binds

Biological target: T1, His tagged human TNFR2 ECD (Acro …)
Assay: ELISA, receptor coated at 1 µg/mL, antibody titrated from 5 µg/mL
Experimental: (§1) Human TNFR2 (Acro Biosystem, TN2-H5227), Human TNFR1 (Acro Biosystem, TN1-H5222), Cynomolgus TNFR2 (Sino Biological, 90102-CO8H) or mouse TNFR2 (R&D systems, 426-R2-050/CF) was coated on high binding polystyrene flat bottom micro-titer plates (Thermo Scientific, 3455) in PBS (PH=7.4, Gibco,10010-031) at 1 μg/mL and 100 μL per well. Plates were incubated at 4° C. overnight.
(§2) Plates were warmed up to room temperature the next day and washed with 200 μL PBS containing 0.1% Tween 20 (Life technologies, 003005) per well for 3 times. Plates were blocked with 200 μL PBS buffer containing 1% BSA (Fisher Scientific, BP1600-100) per well for 1 hour at 37° C. Antibodies was titrated from 5 μg/mL in a 5-fold dilution series, distributed 100 μL per well and incubated at 37° C. for 1 hour. Human IgG1 isotype control (BioxCell, BE0297) was used as negative control. Plates were washed with 200 μL PBS containing 0.1% Tween 20 (Life technologies, 003005) per well for 3 times. Goat anti-Human IgG Fc Secondary Antibody-HRP conjugate (Invitrogen, A18817) were distributed at 0.5μg/mL and 100 μL per well to detect bound antibodies. After 1-hour incubation of secondary antibody at 37° C., plates were washed with 200 μL PBS containing 0.1% Tween 20 (Life technologies, 003005) per well for 3 times. Plates were developed using TMB Substrate Solution (eBioscience, 00-4201-56) and stopped with ELISA stop solution (Invitrogen, SSO4). The level of bound antibodies was determined by reading absorbance at 450 nm. Mouse anti-human TNFR1 antibody (ThermoFisher Scientific, MA1-81005) and goat anti mouse IgG secondary antibody-HRP conjugate (Invitrogen, 62-5520) were used as positive control for human TNFR1 detection. Armenian Hamster anti-mouse TNFR2 antibody (InVivoMab, BE0247) and HRP-Goat anti-Armenian Hamster IgG (H+L) Secondary Antibody (Invitrogen, PA1-32045) were used as positive control for mouse TNFR2 detection.

Row | Binder | binding result
6 | B3 | binds
7 | B4 | binds
8 | B5 | binds

Biological target: T3, mouse TNFR2 (R&D systems, 426-R2-050/CF)
Assay: ELISA, receptor coated at 1 µg/mL
Experimental: as §1, §2

Row | Binder | binding result
9 | B2 | no binding (tested: titrated from 5 µg/mL)
10 | B3 | no binding (tested: titrated from 5 µg/mL)
11 | B4 | no binding (tested: titrated from 5 µg/mL)
12 | B5 | no binding (tested: titrated from 5 µg/mL)

Biological target: T4, Human TNFR1 (Acro Biosystem, TN1-H5222)
Assay: ELISA, receptor coated at 1 µg/mL
Experimental: as §1, §2

Row | Binder | binding result
13 | B2 | no binding (tested: titrated from 5 µg/mL)
14 | B3 | no binding (tested: titrated from 5 µg/mL)
15 | B4 | no binding (tested: titrated from 5 µg/mL)
16 | B5 | no binding (tested: titrated from 5 µg/mL)

Biological target: T5, rat TNFR2 (R&D systems, 8348-R2-050)
Assay: ELISA, receptor coated at 1 µg/ml
Experimental: Plates were incubated at 4° C. overnight. Antibodies was titrated from 100 μg/ml in a 5-fold dilution series, and distributed 100 μL, per well and incubated at 37° C. for 1 hour. Human IgG1 isotype control (BioxCell, BE0297) was used as negative control. TNFR2 Polyclonal Antibody (Invitrogen, PAS-80159) and HRP conjugated Goat anti-Rabbit IgG Fc Secondary Antibody (Invitrogen, A16116) were used as positive control for rat TNFR2 detection.

Row | Binder | binding result
17 | B2 | no binding (tested: titrated from 100 µg/ml)
18 | B3 | no binding (tested: titrated from 100 µg/ml)
19 | B4 | no binding (tested: titrated from 100 µg/ml)
20 | B5 | no binding (tested: titrated from 100 µg/ml)

Biological target: T1, His tagged human TNFR2 ECD (Acro …)
Assay: ELISA, TNFR2-His coated, antibody 0.006 and 0.06 µg/well

Row | Binder | binding result
21 | B2 | binds
